The results in this text go back to patent publication US20110294137A1 (MEDICAL RESEARCH COUNCIL, published 2011).

Data set [1] concerns the molecule itself. In words: right angle light scattering at 340 nm, self-polymerisation, 4 mM ATP.
A further data set addresses T1, Rv1827, P9WJA9.
T1 chain: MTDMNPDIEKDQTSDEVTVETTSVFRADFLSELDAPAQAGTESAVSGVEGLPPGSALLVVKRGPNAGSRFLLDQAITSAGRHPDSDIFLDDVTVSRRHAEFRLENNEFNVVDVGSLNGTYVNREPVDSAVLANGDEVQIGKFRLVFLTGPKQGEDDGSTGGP

B1: wild-type ParM (other)
chain: MLVFIDDGSTNIKLQWQESDGTIKQHISPNSFKREWAVSFGDKKVFNYTLNGEQYSFDPISPDAVVTTNIAWQYSDVNVVAVHHALLTSGLPVSEVDIVCTLPLTEYYDRNNQPNTENIERKKANFRKKITLNGGDTFTIKDVKVMPESIPAGYEVLQELDELDSLLIIDLGGTTLDISQVMGKLSGISKIYGDSSLGVSLVTSAVKDALSLARTKGSSYLADDIIIHRKDNNYLKQRINDENKISIVTEAMNEALRKLEQRVLNTLNEFSGYTHVMVIGGGAELICDAVKKHTQIRDERFFKTNNSQYDLVNGMYLIGN
notes: Unlabelled, without His6 tag (plasmid pJSC1); also called ParM wild-type
As to B1, the “critical concentration (filament formation, in presence of ATP)” value in data set [1] was 2.5 µM.

B2: PknB kinase domain (PknB 1-279) (protein)
chain: MTTPSHLSDRYELGEILGFGGMSEVHLARDLRLHRDVAVKVLRADLARDPSFYLRFRREAQNAAALNHPAIVAVYDTGEAETPAGPLPYIVMEYVDGVTLRDIVHTEGPMTPKRAIEVIADACQALNFSHQNGIIHRDVKPANIMISATNAVKVMDFGIARAIADSGNSVTQTAAVIGTAQYLSPEQARGDSVDARSDVYSLGCVLYEVLTGEPPFTGDSPVSVAYQHVREDPIPPSARHEGLSADLDAVVLKALAKNPENRYQTAAEMRADLVRVHNG
In the case of B2, in the data set with Rv1827, P9WJA9, the KM entry is listed as “KM, 20 µM”; the “KM value (Michaelis-Menten, initial rate against Rv1827 concentration)” value is listed as “a KM value of 22 µM”; the kcat entry is “kcat 4.7 min^-1”; the “kcat (300 µM Rv1827, ATP varied)” value is on record as “kcat, 4.9 min^-1”. Moreover, in the data set with Rv1827, P9WJA9, the maximal rate entry is reported as “a maximal rate of 1.2 µM min^-1” and the specific activity result is “the specific activity of the PknB kinase domain was calculated for 40 µM ATP as 5.9 s^-1”.
